In one assay the test system is elastase. As to the kind of experiment: Digestion of Fc-BSA with elastase, differential pulse voltammetry. Format: biochemical. Here is the method: (§1) Protease assays were performed as follows unless stated otherwise. […] Samples were incubated at 37° C. for 1 hour.
A digestion of Fc-BSA with elastase was carried out as described above. […] The positive reaction has a peak position of 430 mV and a peak height of 2.57×10^−7 A; the no elastase control reaction has a peak position of 432 mV and a peak height of 2.55×10^−8 A.

Another assay deals with T1, porcine pancreas trypsin (Sus scrofa, UniProt P00761).
T1 construct: purchased Sigma; host or cells: porcine pancreas
As to the kind of experiment: Effect of a protease inhibitor on electrochemical marker signal (trypsin digestion of Fc-BSA). It counts as biochemical. Particulars: reaction (i): no inhibitor added. Here is the method:
as §1
Five digestions of Fc-BSA with trypsin were carried out using the protocol described above. In addition, soybean trypsin inhibitor was added to reaction mixtures […]. Solutions of the soybean trypsin inhibitor were prepared by resuspending inhibitor as supplied in deionised water to a concentration of 10 mg/ml and 1 mg/ml as appropriate. No inhibitor was added to reaction (i); 0.5 μl of 1 mg/ml inhibitor solution was added to reaction (ii); […] of 10 mg/ml inhibitor was added to reaction (iii); 5 μl of 10 mg/ml inhibitor solution was added to reaction (iv) and 5 μl of 10 mg/ml inhibitor solution was added to a no-trypsin control reaction. The differential pulse voltammogram results are shown in FIG. 16 with baseline correction.

The target in another assay is T2, trypsin (Sus scrofa, UniProt P00761).
T2 construct: purchased Sigma; host or cells: porcine pancreas
As to the kind of experiment: Amperometric analysis of trypsin digestion. Format: biochemical, porcine. Particulars: amperometric time course trace. Here is the method: Four digestion reactions were carried out with real-time amperometric analysis. […] Tryspin was resuspended in HCl (1 mM, pH 3.0), papain and carboxypeptidase were resuspended in NaCl (100 mM). […] The amperometry conditions were as set out in Tables 2 and 3.
In FIG. 17, there is shown the amperometric time course trace for the trypsin digestion of Fc-BSA. […] As the movement of the species present in the solution reaches a steady state, the current response appears to decay.
In FIG. 18, there is shown the amperometric time course trace for the papain digestion of FcU-BSA. […] As the movement of the species present in the solution reaches a steady state, the current response appears to decay. […] The amperometric time course trace for the trypsin digestion of FcU-BSA is not illustrated in the drawings but was analogous.

T1 sequence (P00761 9-231): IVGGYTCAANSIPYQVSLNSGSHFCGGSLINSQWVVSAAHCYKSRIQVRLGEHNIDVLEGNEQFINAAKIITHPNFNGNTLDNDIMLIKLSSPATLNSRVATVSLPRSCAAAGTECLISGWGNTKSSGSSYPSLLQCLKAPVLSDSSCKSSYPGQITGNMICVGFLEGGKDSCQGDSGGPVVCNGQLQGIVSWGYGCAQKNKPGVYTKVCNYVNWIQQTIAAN
T2 sequence (P00761 9-231): as above

With “Fc-BSA: Bovine serum albumin labelled with ferrocene methanoyl groups via N-hydroxysuccinimide ester; estimated 10 to 20 ferrocenes per BSA”, the peak height in the assay with elastase (no elastase control reaction) is reported as 2.55×10^−8 A; with elastase (positive reaction, tris HCl pH 8.5, 37° C. for 1 hour), 2.57×10^−7 A; with porcine pancreas trypsin, 2.56×10^−7 A. Besides, the peak position with porcine pancreas trypsin is 439 mV. For the same substance, the “faradaic current response over time after addition of the enzyme” value with trypsin is listed as “increase in current”.

These data come from patent US7803572B2, “Protease detection assay” (Atlas Genetics, Ltd., priority 2003, dated 2010).
